{
  "source": "paper PMC7515635",
  "about": "(eLife, 2020)",
  "binders": {"B1": {"name": "HIS6-AtC53 (natural protein)", "chain": "not shown", "notes": "C53, Arabidopsis thaliana; Monomeric by native MS; source: E. coli Rosetta2(DE3)pLysS, purified (HisTrap, ion exchange, SEC)"}},
  "conditions_in_all_cases": "both partners purified",
  "key": {"HIS6-AtC53": {"molecular_target": "B1", "test": "SPR; competition, apparent; GST-GABARAP or GST-ATG8A captured; increasing AIM wt peptide premixed with 10 µM HsC53 or AtC53; 25°C, 50 mM sodium phosphate pH 7.0, 100 mM NaCl, 0.05% Tween-20, 0.1% BSA"}, "HIS6-ATG8A [1]": {"molecular_target": "T1, HIS6-ATG8A (Arabidopsis thaliana, UniProt Q8LEM4 1-117)", "T1 construct": "ATG8A, Arabidopsis thaliana; source: E. coli Rosetta2(DE3)pLysS, purified (HisTrap, ion exchange, SEC)", "T1 sequence (looked up)": "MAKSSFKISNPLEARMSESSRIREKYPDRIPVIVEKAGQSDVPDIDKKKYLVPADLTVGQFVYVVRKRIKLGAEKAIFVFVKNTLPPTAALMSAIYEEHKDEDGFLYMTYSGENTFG", "test": "native MS; proteins exchanged into ammonium acetate, nanoelectrospray, Synapt G2Si; C53 1-5 µM or IDR 2.5 µM with 5-20 µM ATG8A or GABARAP"}, "HIS6-HsC53": {"molecular_target": "T2, HIS6-HsC53 (human, UniProt Q96JB5 1-506)", "T2 construct": "C53 (CDK5RAP3), human; Monomeric by native MS; source: E. coli Rosetta2(DE3)pLysS, purified (HisTrap, ion exchange, SEC)", "T2 sequence (Q96JB5 whole entry)": "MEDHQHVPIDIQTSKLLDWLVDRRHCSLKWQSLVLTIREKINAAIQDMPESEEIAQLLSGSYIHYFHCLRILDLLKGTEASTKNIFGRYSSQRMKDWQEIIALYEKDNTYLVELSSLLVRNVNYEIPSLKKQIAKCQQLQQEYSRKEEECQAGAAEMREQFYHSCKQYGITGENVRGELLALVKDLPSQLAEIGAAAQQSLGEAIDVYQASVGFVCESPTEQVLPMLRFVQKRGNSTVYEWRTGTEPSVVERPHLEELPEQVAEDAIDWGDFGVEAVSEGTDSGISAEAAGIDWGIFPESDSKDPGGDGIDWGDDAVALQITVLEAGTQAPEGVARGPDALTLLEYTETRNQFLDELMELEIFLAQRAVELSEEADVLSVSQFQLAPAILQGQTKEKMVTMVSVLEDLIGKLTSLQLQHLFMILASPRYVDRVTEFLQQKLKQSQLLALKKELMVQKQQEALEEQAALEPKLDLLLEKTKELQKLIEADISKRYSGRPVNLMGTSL", "test": "SPR; competition, apparent; GST-GABARAP or GST-ATG8A captured; increasing AIM wt peptide premixed with 10 µM HsC53 or AtC53; 25°C, 50 mM sodium phosphate pH 7.0, 100 mM NaCl, 0.05% Tween-20, 0.1% BSA"}, "HIS6-ATG8A [2]": {"molecular_target": "T1, HIS6-ATG8A", "test": "ITC; 25°C, 50 mM sodium phosphate pH 7.0, 100 mM NaCl; cell 40 µM GABARAP or ATG8A, syringe 600 µM peptide or 250 µM IDR; one-set-of-sites model"}, "HIS6-GABARAP": {"molecular_target": "T3, HIS6-GABARAP (human, UniProt O95166 1-117)", "T3 construct": "GABARAP, human ATG8 isoform; source: E. coli Rosetta2(DE3)pLysS, purified (HisTrap, ion exchange, SEC)", "test": "ITC; 25°C, 50 mM sodium phosphate pH 7.0, 100 mM NaCl; cell 40 µM GABARAP or ATG8A, syringe 600 µM peptide or 250 µM IDR; one-set-of-sites model"}},
  "note": "Where “and” joins values, the source holds several entries; their conditions need not be identical. Equal values may be shown once.",
  "data": [
    {"binder": "GST-ATG8A (natural protein, Arabidopsis thaliana, UniProt Q8LEM4 1-117, looked up, ATG8A, Arabidopsis thaliana; printed MW of GST-ATG8A 42366.85 Da; also called AtATG8; source: E. coli recombinant expression; bacterial lysate (pull-downs), recombinant protein (SPR, peptide array); not shown: GST, N-terminal, kept) MAKSSFKISNPLEARMSESSRIREKYPDRIPVIVEKAGQSDVPDIDKKKYLVPADLTVGQFVYVVRKRIKLGAEKAIFVFVKNTLPPTAALMSAIYEEHKDEDGFLYMTYSGENTFG", "values": [
      {"measurement": "binding result", "setting": "HIS6-AtC53", "result": "binds"}
    ]},
    {"binder": "AtC53-IDR (purified) (domain or fragment, Arabidopsis thaliana, UniProt Q9FG23 264-341, looked up, intrinsically disordered region of Arabidopsis C53; The expected mass (about 80 residues) is too small for 239-372, the limits of MBP-AtC53^IDR; source: E. coli Rosetta2(DE3)pLysS, purified) ANGTDAAADSIDWDITVETPEIDWDVSMVEEVDSGNDLGSYEIVNASDIPENSPFKVEESQGLEVDVSEISWDVSVET", "values": [
      {"measurement": "stoichiometry N", "setting": "HIS6-ATG8A [1]", "result": "1 ATG8A per AtC53-IDR and 2 ATG8A per AtC53-IDR and 3 ATG8A per AtC53-IDR"}
    ]},
    {"binder": "B1", "values": [
      {"measurement": "stoichiometry N", "setting": "HIS6-ATG8A [1]", "result": "1 ATG8A per AtC53 and 2 ATG8A per AtC53"}
    ]},
    {"binder": "GST-GABARAP (natural protein, human, UniProt O95166 1-117, looked up, GABARAP, human ATG8 isoform; printed MW of GST-GABARAP 42458.87 Da; source: E. coli recombinant expression; bacterial lysate (pull-downs), recombinant protein (SPR); not shown: GST, N-terminal, kept) MKFVYKEEHPFEKRRSEGEKIRKKYPDRVPVIVEKAPKARIGDLDKKKYLVPSDLTVGQFYFLIRKRIHLRAEDALFFFVNNVIPPTSATMGQLYQEHHEEDFFLYIAYSDESVYGL", "values": [
      {"measurement": "binding result", "setting": "HIS6-HsC53", "result": "binds"}
    ]},
    {"binder": "EPLDFDIDWDLEEEM (peptide with a shuffled AIM (IDWD) in the frame of the AIM wt peptide)", "note": "[At-sAIM peptide]", "values": [
      {"measurement": "binding result", "setting": "HIS6-ATG8A [2]", "result": "binds"}
    ]},
    {"binder": "EPLDFDIDWGLEEEM (peptide with a shuffled AIM (IDWG) in the frame of the AIM wt peptide; also called Hs-sAIMC53)", "note": "[Hs-sAIM peptide]", "values": [
      {"measurement": "binding result", "setting": "HIS6-GABARAP", "result": "binds"}
    ]}
  ]
}
